Laboratory results from the supplement of paper PMC9112550, “Optimization of the antimicrobial peptide Bac7 by deep mutational scanning” (BMC Biology, 2022).

Tested on: Escherichia coli TOP10
Experiment: shrunken log2 fold change of peptide-encoding DNA abundance (4.5 h post-induction vs induction); higher = less antimicrobial activity (less host growth inhibition)
Settings: time post-induction: 4.5 h; library: site-saturation at positions 5, 18, 19, 20
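Further: peptides expressed intracellularly from a pBAD plasmid library in pooled LB shake-flask culture, induced with 0.3% L-arabinose, DNA abundance read by NGS, three biological replicates, DESeq2 with apeglm shrinkage.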

Point of comparison: RRIRARPPRLPRPRPRPDVTPRP, “shrunken log2 fold change” value 0.533. Against it:
- RRIRARPPRLPRPRPRPACIPRP — lower, 0.171
- RRIRARPPRLPRPRPRPADYPRP — lower, 0.177
- RRIRARPPRLPRPRPRPAEVPRP — lower, 0.129
- RRIRARPPRLPRPRPRPAGDPRP — higher, 1.01
- RRIRARPPRLPRPRPRPAHDPRP — lower, 0.184
- RRIRARPPRLPRPRPRPAIIPRP — lower, 0.101
- RRIRARPPRLPRPRPRPAKSPRP — lower, 0.061
- RRIRARPPRLPRPRPRPALMPRP — within 0.2 log units, 0.534
- RRIRARPPRLPRPRPRPANAPRP — lower, 0.301
- RRIRARPPRLPRPRPRPANGPRP — lower, 0.109
- RRIRARPPRLPRPRPRPAPSPRP — higher, 0.787
- RRIRARPPRLPRPRPRPAQGPRP — within 0.2 log units, 0.373
- RRIRARPPRLPRPRPRPARWPRP — higher, 0.95
- RRIRARPPRLPRPRPRPASKPRP — lower, 0.0747
- RRIRARPPRLPRPRPRPATGPRP — lower, 0.318
- RRIRARPPRLPRPRPRPATIPRP — within 0.2 log units, 0.496
- RRIRARPPRLPRPRPRPATNPRP — lower, 0.317
- RRIRARPPRLPRPRPRPATRPRP — within 0.2 log units, 0.487
- RRIRARPPRLPRPRPRPATTPRP — within 0.2 log units, 0.681
- RRIRARPPRLPRPRPRPAVKPRP — lower, 0.233
- RRIRARPPRLPRPRPRPAWDPRP — higher, 0.858
- RRIRARPPRLPRPRPRPAWRPRP — within 0.2 log units, 0.649
- RRIRARPPRLPRPRPRPCANPRP — lower, 0.102
- RRIRARPPRLPRPRPRPCAPPRP — within 0.2 log units, 0.384
- RRIRARPPRLPRPRPRPCDTPRP — lower, 0.255
- RRIRARPPRLPRPRPRPCDVPRP — lower, 0.212
- RRIRARPPRLPRPRPRPCFGPRP — lower, 0.0532
- RRIRARPPRLPRPRPRPCGAPRP — higher, 0.737
- RRIRARPPRLPRPRPRPCHCPRP — lower, 0.164
- RRIRARPPRLPRPRPRPCHEPRP — lower, -0.055
- RRIRARPPRLPRPRPRPCISPRP — lower, 0.0706
- RRIRARPPRLPRPRPRPCKEPRP — lower, 0.000506
- RRIRARPPRLPRPRPRPCKHPRP — lower, -0.116
- RRIRARPPRLPRPRPRPCLEPRP — lower, 0.19
- RRIRARPPRLPRPRPRPCLRPRP — lower, 0.0978
- RRIRARPPRLPRPRPRPCMPPRP — lower, -0.0783
- RRIRARPPRLPRPRPRPCMVPRP — lower, -0.0554
- RRIRARPPRLPRPRPRPCMWPRP — lower, 0.117
- RRIRARPPRLPRPRPRPCNIPRP — lower, -0.671
- RRIRARPPRLPRPRPRPCNMPRP — lower, -0.253
- RRIRARPPRLPRPRPRPCNQPRP — lower, -0.253
- RRIRARPPRLPRPRPRPCNTPRP — lower, -0.0534
- RRIRARPPRLPRPRPRPCQIPRP — lower, -0.486
- RRIRARPPRLPRPRPRPCQQPRP — lower, -0.00897
- RRIRARPPRLPRPRPRPCTHPRP — lower, -0.182
- RRIRARPPRLPRPRPRPCTWPRP — lower, 0.108
- RRIRARPPRLPRPRPRPCVNPRP — lower, 0.194
- RRIRARPPRLPRPRPRPCWVPRP — lower, 0.237
- RRIRARPPRLPRPRPRPCYGPRP — lower, -0.246
- RRIRARPPRLPRPRPRPCYPPRP — lower, -0.209
- RRIRARPPRLPRPRPRPDDKPRP — lower, -0.112
- RRIRARPPRLPRPRPRPDEFPRP — lower, 0.331
- RRIRARPPRLPRPRPRPDESPRP — lower, 0.0602
- RRIRARPPRLPRPRPRPDGVPRP — higher, 0.971
- RRIRARPPRLPRPRPRPDHNPRP — lower, -0.154
- RRIRARPPRLPRPRPRPDHPPRP — lower, 0.297
- RRIRARPPRLPRPRPRPDKLPRP — lower, 0.105
- RRIRARPPRLPRPRPRPDKRPRP — lower, 0.109
- RRIRARPPRLPRPRPRPDKYPRP — higher, 1.5
- RRIRARPPRLPRPRPRPDLTPRP — lower, 0.198
- RRIRARPPRLPRPRPRPDMRPRP — higher, 0.737
- RRIRARPPRLPRPRPRPDNGPRP — lower, -0.19
- RRIRARPPRLPRPRPRPDNWPRP — lower, 0.283
- RRIRARPPRLPRPRPRPDQNPRP — within 0.2 log units, 0.489
- RRIRARPPRLPRPRPRPDSTPRP — lower, -0.0804
- RRIRARPPRLPRPRPRPDSWPRP — within 0.2 log units, 0.508
- RRIRARPPRLPRPRPRPDTFPRP — lower, 0.158
- RRIRARPPRLPRPRPRPEAMPRP — higher, 0.805
- RRIRARPPRLPRPRPRPEARPRP — higher, 1.42
- RRIRARPPRLPRPRPRPECDPRP — higher, 1.12
- RRIRARPPRLPRPRPRPECLPRP — higher, 0.909
- RRIRARPPRLPRPRPRPEDEPRP — lower, 0.182
- RRIRARPPRLPRPRPRPEDFPRP — higher, 1.11
- RRIRARPPRLPRPRPRPEDRPRP — within 0.2 log units, 0.381
- RRIRARPPRLPRPRPRPEFRPRP — lower, 0.327
- RRIRARPPRLPRPRPRPEFTPRP — within 0.2 log units, 0.475
- RRIRARPPRLPRPRPRPEIHPRP — higher, 0.756
- RRIRARPPRLPRPRPRPEKPPRP — within 0.2 log units, 0.64
- RRIRARPPRLPRPRPRPELNPRP — higher, 0.746
- RRIRARPPRLPRPRPRPENLPRP — lower, 0.0156
- RRIRARPPRLPRPRPRPENNPRP — lower, 0.263
- RRIRARPPRLPRPRPRPENRPRP — lower, 0.0495
- RRIRARPPRLPRPRPRPEQTPRP — higher, 1.18
- RRIRARPPRLPRPRPRPERGPRP — lower, 0.305
- RRIRARPPRLPRPRPRPESWPRP — higher, 1.49
- RRIRARPPRLPRPRPRPETPPRP — higher, 1.65
- RRIRARPPRLPRPRPRPETWPRP — within 0.2 log units, 0.369
- RRIRARPPRLPRPRPRPEVGPRP — higher, 1.42
- RRIRARPPRLPRPRPRPEWNPRP — higher, 0.76
- RRIRARPPRLPRPRPRPFCDPRP — lower, 0.0183
- RRIRARPPRLPRPRPRPFCRPRP — lower, 0.211
- RRIRARPPRLPRPRPRPFCWPRP — within 0.2 log units, 0.401
- RRIRARPPRLPRPRPRPFDAPRP — lower, 0.116
- RRIRARPPRLPRPRPRPFEEPRP — within 0.2 log units, 0.424
- RRIRARPPRLPRPRPRPFEWPRP — lower, -0.0571
- RRIRARPPRLPRPRPRPFHMPRP — lower, -1.05
- RRIRARPPRLPRPRPRPFISPRP — lower, 0.112
- RRIRARPPRLPRPRPRPFKKPRP — lower, -0.0888
- RRIRARPPRLPRPRPRPFMMPRP — lower, -0.105
- RRIRARPPRLPRPRPRPFNTPRP — lower, -0.189
- RRIRARPPRLPRPRPRPFPMPRP — within 0.2 log units, 0.335
- RRIRARPPRLPRPRPRPFPSPRP — lower, 0.131
- RRIRARPPRLPRPRPRPFQMPRP — lower, -0.0651
- RRIRARPPRLPRPRPRPFQVPRP — lower, 0.0694
- RRIRARPPRLPRPRPRPFRWPRP — lower, -0.0369
- RRIRARPPRLPRPRPRPFTYPRP — lower, -0.0975
- RRIRARPPRLPRPRPRPFVDPRP — lower, 0.302
- RRIRARPPRLPRPRPRPFWAPRP — lower, 0.218
